Results from patent US6815187.

System: syndecan-4 cytoplasmic tail peptide with a phosphorylated Ser (S4c-P)

Recombinant PKCα
phosphorylation level of the PKCβ1 optimal substrate peptide by PKCα, in the presence of PIP2: the phosphorylation level of the substrate was similar to that obtained with PIP2 alone
